Measured values published in article PMC2888057.

Molecular target: KCNQ1 H363C in the cysteine-less background (human) (UniProt P51787)

time constant of oxidant (0.1% H2O2)-induced current reduction, H363C with D76C: 50 s
Substance: KCNE1 D76C in the cysteine-less, HA-tagged background (from UniProt P15382 1-129) (natural protein)
